Experimental data taken from US8981056.

Target: Aspergillus terreus LOVF Polyketide Synthase

B1: LovD G7 mutant (protein)
chain: MGSIIDAAAAAGPVVLMETAFRKAVESRQIPGAVIMARDASGNLNYTRCFGARTVRRDENNQLPPLQVDTPCRLASATKLLTTIMVLQCMERGLVDLDETVDRLLPDLSAMPVLEGFDDAGNARLRERRGKITLRHLLTHTSGLSYVFLHPLLREYMAQGYLQSAEKFGIQSRLAPPAVNDPGAEWIYGTNLDWAGKLVERATGLDLEQYLQENICAPLGITDMTFKLQQRPDMLARRADQTHRNSADGRLRYDDSVYFRADGEECFGGQGVFSSPGSYMKVLHSLLKRDGLLLQPQTVDLMFQPALEPRLEEQMNQHMDASPHINYGGPMPMFLRRSFGLGGIIALEDLDGENWRRKGSLTFGGGPNIVWQIDPKAGLCTLAFFQLEPWNDPVCRDLTRTFEHAIYAQYQQG
- activities towards LovF (kinetic assay for LVA synthesis with LovF as acyl donor): The G7 mutant exhibited a 27-fold decrease in activities towards LovF compared to the G0 parent
